The values that follow come from patent US20080311034A1 (published 2008).

The target of experiment [1] is T1, recombinant human His-tagged FcγRIIIa (extracellular domain made at Centocor) (human, UniProt P08637 17-208).
T1 construct: extracellular domain; also called CD16a; recombinant, soluble, human FcγRIIIa
Nature of the experiment: ELISA, His-tagged FcγRIIIa captured on HisGrab plate. On the procedure: FcγRIIIa (CD16a) ELISA—A human FcγRIIIa binding assay was done in ELISA format similar to the assay for FcγRI above. 50 μl of a 2 μg/ml solution of recombinant human His-tagged FcγRIIIa (extracellular domain made at Centocor) in ELISA buffer (PBS, 4 mg/ml BSA, 0.01% Tween-20) was added to each well of HisGrab 96 well plates (Pierce #15142) (Powers G., Notebook 10378, 19-23). The plate was incubated for 3 hours at room temp. The plates were blocked with 200 μl of Starting Block (Pierce #15142) for 30 min, and then washed 3× with 300 μl of wash buffer (PBS, 0.01% Tween-20) on a plate washer. Serial dilutions of the CNTO 860 test samples were made in Starting Block buffer and 50 μl per well of each titration were added in duplicate to the FcγRIIIa-coated plates. The plates were incubated for 1 hour. The plates were washed 3× with 300 μl of wash buffer on a plate washer. 50 μl of a 1:10,000 dilution of HRP-labeled goat F(ab′)2 anti-human IgG F(ab′)2 (Jackson Immunoresearch # 109-036-097) in Starting Block buffer was added to each well. The plates were incubated for 30 minutes. The plates were washed 3× with 300 μl of wash buffer on the plate washer. 50 μl per well TMB substrate (RDI #RDI-TMBSU-1L) was added to each well and developed for 3-5 minutes. The reaction was stopped by adding 100 μl […] sulfuric acid. The plates were read at OD450 on an Envision plate reader. Antibody concentration vs OD450 values were graphed for each CNTO 860 variant and the antibody concentration needed to achieve an OD450 reading of 0.14 established by interpolation within each data curve.
A general note: In an ELISA, binding on a coated surface is turned into a signal by an enzyme label.

For experiment [2], the target named is T2, recombinant human FcγRIIb (R&D Systems #1875-CD-050) (human, UniProt P31994 46-217, limits assumed).
T2 construct: Bought; also called CD32b; recombinant, soluble, human FcγRIIb
T2 sequence (looked up): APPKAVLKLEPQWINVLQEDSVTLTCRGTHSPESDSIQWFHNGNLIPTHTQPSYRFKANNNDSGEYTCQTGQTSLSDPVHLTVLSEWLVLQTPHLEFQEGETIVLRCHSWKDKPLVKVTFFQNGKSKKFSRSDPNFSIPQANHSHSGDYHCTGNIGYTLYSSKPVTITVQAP
Briefly: AlphaScreen, FcγRIIb on nickel acceptor beads. The method, then:
FcγRIIa (CD32a) AlphaScreen—Nickel acceptor beads (Perkin Elmer #6760619C) were diluted 1:50 in assay buffer (PBS, pH 7.4, 4 mg/ml BSA, 0.01% Tween-20), and 27.5 μl were added to each well of a Nunc V-bottom polypropylene plate (VWR # 62409-108) (Powers G., Notebook 9006, pp. 169-175, 182-185). A 2.0 μg/ml solution of recombinant human His-tagged FcγRIIa (R&D Systems #1330-CD-050) was prepared in assay buffer and 27.5 μl added to each well of a separate Nunc V bottom polypropylene plate. Titrations of test Abs were prepared in the Nunc V bottom polypropylene plate starting at 30 μg/ml. A 2 μg/ml solution of biotinylated goat F(ab′)₂ anti-human IgG F(ab′)₂ (Jackson Immunoresearch #109-066-097) was prepared in assay buffer and 27.5 μl added to each well of another Nunc V bottom polypropylene plate. A 1:50 dilution of streptavidin donor beads (PerkinElmer # 6760002) was prepared in assay buffer and 27.5 μl added to each well of another Nunc V bottom polypropylene plate. A volume of 5 μl of each reagent was added to the corresponding quadrants of a low-volume, non-binding white 384-well plate (Corning # 3673) in the following order: acceptor beads, FcγRIIa, test Ab, biotinylated anti-human IgG F(ab′)₂, and streptavidin donor beads. The plates were incubated for 30 minutes with shaking and the O.D.s determined using an Envision plate reader.
FcγRIIb (CD32b) AlphaScreen—The assay was performed as described above for FcγRIIa except that FcγRIIa was replaced with FcγRIIb (R&D Systems #1875-CD-050).
(Bead proximity is the source of the signal in Alpha formats.)

Experiment [3] addresses T3, recombinant polyhistidine tagged mouse FcγRII (R&D Systems) (mouse, UniProt P08101 40-217, limits assumed).
T3 construct: Bought; also called FcRII
T3 sequence (looked up): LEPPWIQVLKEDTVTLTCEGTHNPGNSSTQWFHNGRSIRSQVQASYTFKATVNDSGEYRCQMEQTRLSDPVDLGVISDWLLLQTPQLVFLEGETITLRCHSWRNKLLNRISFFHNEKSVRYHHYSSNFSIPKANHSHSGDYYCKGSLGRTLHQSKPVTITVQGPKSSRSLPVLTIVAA
Nature of the experiment: ELISA, His-tagged mouse receptor captured on copper-coated plate. The method, then: (§1) Commercially-available recombinant polyhistidine tagged mouse FcγRI, FcγRII, FcγRIII, and FcγRIV (R&D Systems) were diluted to 1 μg/ml in PBS and 100 μl/well was captured onto copper-coated plates (Pierce) overnight at 4° C. Plates were washed three times with wash buffer (0.15M NaCl, 0.02% Tween 20). Non-specific binding was blocked using 200 μl/well SuperBlock (Pierce) for 15 minutes at room temperature. Plates were washed three times as above. […] Plates were washed three times as above to remove unbound mAb. CNTO 860 variants that bound to plated receptors were detected using 100 μl/well HRP-labeled goat F(ab′)₂ anti-human IgG F(ab′)₂ (Jackson ImmunoResearch) diluted 1:5,000 in PBS incubated at room temperature for 1 hour. Plates were washed five times using wash buffer as above, and developed using 100 μl/well TMB Stable Stop substrate (Fitzgerald Industries) stopped with 0.5M HCl. Absorbance was detected at 450 nm.
(§2) All binding assays were in an ELISA format, with recombinant soluble receptor captured on coated EIA plates.

Experiment [4] has as its target T4, recombinant polyhistidine tagged mouse FcγRI (R&D Systems) (mouse, UniProt P26151 25-297).
T4 construct: Bought; also called murine FcγRI
T4 sequence (looked up): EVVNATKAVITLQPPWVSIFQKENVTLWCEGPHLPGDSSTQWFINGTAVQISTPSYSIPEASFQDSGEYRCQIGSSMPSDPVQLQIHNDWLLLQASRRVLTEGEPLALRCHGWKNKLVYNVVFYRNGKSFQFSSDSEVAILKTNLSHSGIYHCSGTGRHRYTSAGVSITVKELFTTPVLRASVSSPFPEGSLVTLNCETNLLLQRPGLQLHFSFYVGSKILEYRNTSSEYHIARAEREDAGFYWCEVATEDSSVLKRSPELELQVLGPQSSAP
Described as above. On the procedure: as §1, §2

T1 sequence (P08637 17-208): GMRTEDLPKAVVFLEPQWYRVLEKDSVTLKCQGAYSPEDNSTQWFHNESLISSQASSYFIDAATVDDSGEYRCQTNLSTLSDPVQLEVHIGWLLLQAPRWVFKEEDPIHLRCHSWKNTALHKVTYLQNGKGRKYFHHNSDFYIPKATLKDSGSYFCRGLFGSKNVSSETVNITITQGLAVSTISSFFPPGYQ

B1: YB2/0-CNTO 860 A330Y (antibody, human IgG1, kappa)
heavy: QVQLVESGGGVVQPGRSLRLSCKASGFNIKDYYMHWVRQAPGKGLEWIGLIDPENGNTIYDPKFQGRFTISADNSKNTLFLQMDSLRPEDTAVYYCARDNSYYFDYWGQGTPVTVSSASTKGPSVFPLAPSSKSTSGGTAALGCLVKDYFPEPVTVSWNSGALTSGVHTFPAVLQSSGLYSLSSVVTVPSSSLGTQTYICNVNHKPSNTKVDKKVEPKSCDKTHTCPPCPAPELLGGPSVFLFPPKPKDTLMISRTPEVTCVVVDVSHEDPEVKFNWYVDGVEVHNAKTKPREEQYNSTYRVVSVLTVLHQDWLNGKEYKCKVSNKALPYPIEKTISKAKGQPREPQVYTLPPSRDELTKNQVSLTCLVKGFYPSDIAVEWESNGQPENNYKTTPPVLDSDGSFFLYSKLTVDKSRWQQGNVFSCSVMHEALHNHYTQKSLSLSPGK
light: DIQMTQSPSSLSASVGDRVTITCKASQDIRKYLNWYQQKPGKAPKLLIYYATSLADGVPSRFSGSGSGTDYTFTISSLQPEDIATYYCLQHGESPYTFGQGTKLEITRTVAAPSVFIFPPSDEQLKSGTASVVCLLNNFYPREAKVQWKVDNALQSGNSQESVTEQDSKDSTYSLSSTLTLSKADYEKHKVYACEVTHQGLSSPVTKSFNRGEC
modifications: N-linked glycan at heavy chain Asn297 (YB2/0-type, low fucose); not carried by the letters
notes: IgG1/kappa Fc variant; stably expressed in YB2/0 cells (p4176/p2402); EU numbering; also called A330Y (YB2/0 cell-derived); copies: 2 + 2
Regarding B1, in experiment [1], the “concentration (ng/ml) required for an O.D. value of 0.14” value (“concentration … of 0.14” for short) stood at 340 ng/mL. Moreover, in experiment [2], the “concentration (ng/ml) required for an O.D. value of 200,000” value (from here on “concentration … of 200,000”) amounted to 165 ng/mL. Besides, the “ECOD1 (concentration required for an O.D. value of 1.0)” value (“ECOD1” for short) in experiment [3] worked out at 6000 ng/mL; in experiment [4], 4000 ng/mL.

B2: YB2/0-CNTO 860 WT (antibody, human IgG1, kappa)
heavy: not shown
light: DIQMTQSPSSLSASVGDRVTITCKASQDIRKYLNWYQQKPGKAPKLLIYYATSLADGVPSRFSGSGSGTDYTFTISSLQPEDIATYYCLQHGESPYTFGQGTKLEITRTVAAPSVFIFPPSDEQLKSGTASVVCLLNNFYPREAKVQWKVDNALQSGNSQESVTEQDSKDSTYSLSSTLTLSKADYEKHKVYACEVTHQGLSSPVTKSFNRGEC
modifications: Heavy chain N297 carries the YB2/0-type N-linked glycan (40-60% fucosylated); not carried by the letters.
notes: Anti-human tissue factor human IgG1/kappa; stably expressed in rat YB2/0 cells (p2401/p2402; YB2/0 Abs typically 40-60% fucosylated), purified by protein A; also called WT (YB2/0 cell-derived); WT from YB2/0 cells; copies: 2 + 2
B2: the “concentration … of 0.14” value in experiment [1] was 1500 ng/mL. In addition, in experiment [2], the “concentration … of 200,000” value was 120 ng/mL. Besides, the “ECOD1” value is 3000 ng/mL in experiment [3] and 12000 ng/mL in experiment [4].

B3: YB2/0-CNTO 860 S239D/I332E (antibody, human IgG1, kappa)
heavy: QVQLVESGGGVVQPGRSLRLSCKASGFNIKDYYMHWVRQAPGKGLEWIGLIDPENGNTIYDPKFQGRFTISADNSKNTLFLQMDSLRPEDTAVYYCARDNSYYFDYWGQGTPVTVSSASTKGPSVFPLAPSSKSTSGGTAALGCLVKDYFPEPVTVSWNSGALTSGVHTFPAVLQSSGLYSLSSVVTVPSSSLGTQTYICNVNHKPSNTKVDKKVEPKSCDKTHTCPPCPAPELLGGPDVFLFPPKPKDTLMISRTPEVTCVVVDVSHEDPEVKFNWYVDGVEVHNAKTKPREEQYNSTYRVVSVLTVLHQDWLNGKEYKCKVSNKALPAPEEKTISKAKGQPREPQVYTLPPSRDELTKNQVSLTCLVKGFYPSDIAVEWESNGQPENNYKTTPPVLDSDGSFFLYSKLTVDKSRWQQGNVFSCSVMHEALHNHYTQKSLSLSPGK
light: DIQMTQSPSSLSASVGDRVTITCKASQDIRKYLNWYQQKPGKAPKLLIYYATSLADGVPSRFSGSGSGTDYTFTISSLQPEDIATYYCLQHGESPYTFGQGTKLEITRTVAAPSVFIFPPSDEQLKSGTASVVCLLNNFYPREAKVQWKVDNALQSGNSQESVTEQDSKDSTYSLSSTLTLSKADYEKHKVYACEVTHQGLSSPVTKSFNRGEC
modifications: N-linked glycan at heavy chain Asn297 (YB2/0-type, low fucose); not carried by the letters
notes: IgG1/kappa Fc variant; stably expressed in YB2/0 cells (p4179/p2402); EU numbering; also called S239D/I332E (YB2/0 cell-derived); copies: 2 + 2
B3: the “concentration … of 0.14” value in experiment [1] was 120 ng/mL. The “concentration … of 200,000” value in experiment [2] was found to be 20 ng/mL. Besides, the “ECOD1” value turned out to be 6000 ng/mL in experiment [3] and 1900 ng/mL in experiment [4].

B4: YB2/0-CNTO 860 V264I/I332E (antibody, human IgG1, kappa)
heavy: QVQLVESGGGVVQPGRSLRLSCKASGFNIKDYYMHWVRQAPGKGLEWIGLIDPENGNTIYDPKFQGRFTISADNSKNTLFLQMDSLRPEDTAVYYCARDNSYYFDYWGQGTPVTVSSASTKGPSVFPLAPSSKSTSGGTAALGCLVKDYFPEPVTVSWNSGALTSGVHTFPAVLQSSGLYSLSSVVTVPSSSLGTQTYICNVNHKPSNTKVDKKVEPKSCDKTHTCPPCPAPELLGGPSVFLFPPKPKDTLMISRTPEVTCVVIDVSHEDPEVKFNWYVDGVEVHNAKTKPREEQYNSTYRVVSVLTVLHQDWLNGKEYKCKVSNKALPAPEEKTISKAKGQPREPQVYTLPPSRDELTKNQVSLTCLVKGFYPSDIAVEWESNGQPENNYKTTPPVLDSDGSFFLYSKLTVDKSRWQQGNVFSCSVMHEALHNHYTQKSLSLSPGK
light: DIQMTQSPSSLSASVGDRVTITCKASQDIRKYLNWYQQKPGKAPKLLIYYATSLADGVPSRFSGSGSGTDYTFTISSLQPEDIATYYCLQHGESPYTFGQGTKLEITRTVAAPSVFIFPPSDEQLKSGTASVVCLLNNFYPREAKVQWKVDNALQSGNSQESVTEQDSKDSTYSLSSTLTLSKADYEKHKVYACEVTHQGLSSPVTKSFNRGEC
modifications: N-linked glycan at heavy chain Asn297 (YB2/0-type, low fucose); not carried by the letters
notes: IgG1/kappa Fc variant; stably expressed in YB2/0 cells (p4180/p2402); EU numbering; also called V264I/I332E (YB2/0 cell-derived); copies: 2 + 2
Take B4: the “concentration … of 0.14” value in experiment [1] amounted to 165 ng/mL. Moreover, the “concentration … of 200,000” value in experiment [2] was 60 ng/mL. Further, the “ECOD1” value in experiment [3] stood at 1600 ng/mL; in experiment [4], 3000 ng/mL.

B5: YB2/0-CNTO 860 I332E (antibody, human IgG1, kappa)
heavy: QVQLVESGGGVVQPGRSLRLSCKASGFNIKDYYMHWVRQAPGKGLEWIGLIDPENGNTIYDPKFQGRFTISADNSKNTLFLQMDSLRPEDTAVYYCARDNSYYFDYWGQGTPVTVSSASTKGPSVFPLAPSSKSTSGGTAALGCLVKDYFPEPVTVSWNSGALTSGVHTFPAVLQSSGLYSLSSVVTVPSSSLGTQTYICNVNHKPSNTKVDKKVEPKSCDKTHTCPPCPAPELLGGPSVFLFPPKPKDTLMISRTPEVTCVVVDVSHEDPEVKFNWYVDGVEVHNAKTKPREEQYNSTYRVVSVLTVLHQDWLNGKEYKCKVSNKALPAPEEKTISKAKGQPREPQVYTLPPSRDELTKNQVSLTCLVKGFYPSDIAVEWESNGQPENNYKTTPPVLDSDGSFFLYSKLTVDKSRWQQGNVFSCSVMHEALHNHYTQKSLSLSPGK
light: DIQMTQSPSSLSASVGDRVTITCKASQDIRKYLNWYQQKPGKAPKLLIYYATSLADGVPSRFSGSGSGTDYTFTISSLQPEDIATYYCLQHGESPYTFGQGTKLEITRTVAAPSVFIFPPSDEQLKSGTASVVCLLNNFYPREAKVQWKVDNALQSGNSQESVTEQDSKDSTYSLSSTLTLSKADYEKHKVYACEVTHQGLSSPVTKSFNRGEC
modifications: Heavy chain N297 carries the YB2/0-type low-fucose N-linked glycan; not carried by the letters.
notes: IgG1/kappa Fc variant; stably expressed in YB2/0 cells (p4148/p2402), low-fucose glycan; EU numbering; also called I332E (YB2/0 cell-derived); I332E from YB2/0 cells; copies: 2 + 2
Consider B5, for which the “concentration … of 0.14” value in experiment [1] was 165 ng/mL. The “concentration … of 200,000” value in experiment [2] was 75 ng/mL. For the same molecule, the “ECOD1” value is 700 ng/mL in experiment [3] and 5000 ng/mL in experiment [4].
